Results: publication PMC5855320, “Activation of the Notch Signaling Pathway In Vivo Elicits Changes in CSL Nuclear Dynamics” (Developmental Cell, 2018)

Key:
[1] = system: Su(H) WT (Drosophila melanogaster); assay: ITC; conditions: ITC: 50 mM sodium phosphate pH 6.5, 150 mM NaCl, 10 C; 10 uM Su(H) in cell, 100 uM DNA in syringe; one-site model
[2] = biological target: T1, Recombinant Su(H) (98-523) (Drosophila melanogaster, UniProt P28159 98-523); assay: ITC; MicroCal VP-ITC; typically 50 μM Su(H) in the syringe and 5 μM NICD in the cell; 25°C; 50 mM sodium phosphate pH 6.5, 150 mM NaCl; one-site binding model; conditions: both partners purified
T1 construct: Suppressor of Hairless (Su(H)), the Drosophila CSL, residues 98-523; Wild-type parent of the NBM mutant in the ITC experiment; also called Suppressor of Hairless; CSL; source: bacteria, purified (glutathione-Sepharose, cation exchange, size exclusion chromatography)
T1 sequence (P28159 98-523): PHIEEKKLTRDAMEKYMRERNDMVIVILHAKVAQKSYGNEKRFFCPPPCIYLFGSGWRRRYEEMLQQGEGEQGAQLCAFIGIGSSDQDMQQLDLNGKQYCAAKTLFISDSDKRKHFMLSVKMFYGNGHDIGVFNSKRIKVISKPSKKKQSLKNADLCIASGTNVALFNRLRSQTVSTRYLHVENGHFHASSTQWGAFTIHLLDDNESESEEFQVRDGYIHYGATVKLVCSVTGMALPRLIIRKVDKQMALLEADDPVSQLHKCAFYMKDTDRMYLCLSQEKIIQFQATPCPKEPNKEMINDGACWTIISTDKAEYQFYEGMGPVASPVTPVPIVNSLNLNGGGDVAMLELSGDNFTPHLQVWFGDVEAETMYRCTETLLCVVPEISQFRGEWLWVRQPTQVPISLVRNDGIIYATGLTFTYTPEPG

binding result [2] | Molecule | Kd [1]
 | ITC DNA (Su(H) binding DNA, sequence not given) | 460 nM
binds | Recombinant NICD (1762-2142) (domain or fragment, Drosophila melanogaster, UniProt P07207 1762-2142, looked up, Notch intracellular domain (NICD), Drosophila Notch, residues 1762-2142; also called Notch intracellular domain; source: bacteria, purified (glutathione-Sepharose, cation exchange, size exclusion chromatography)) MVLSTQRKRAHGVTWFPEGFRAPAAVMSRRRRDPHGQEMRNLNKQVAMQSQGVGQPGAHWSDDESDMPLPKRQRSDPVSGVGLGNNGGYASDHTMVSEYEEADQRVWSQAHLDVVDVRAIMTPPAHQDGGKHDVDARGPCGLTPLMIAAVRGGGLDTGEDIENNEDSTAQVISDLLAQGAELNATMDKTGETSLHLAARFARADAAKRLLDAGADANCQDNTGRTPLHAAVAADAMGVFQILLRNRATNLNARMHDGTTPLILAARLAIEGMVEDLITADADINAADNSGKTALHWAAAVNNTEAVNILLMHHANRDAQDDKDETPLFLAAREGSYEACKALLDNFANREITDHMDRLPRDVASERLHHDIVRLLDEHVPR | 
